T1: GST-AbaA (Aspergillus nidulans, UniProt P20945 1-588)
T1 sequence: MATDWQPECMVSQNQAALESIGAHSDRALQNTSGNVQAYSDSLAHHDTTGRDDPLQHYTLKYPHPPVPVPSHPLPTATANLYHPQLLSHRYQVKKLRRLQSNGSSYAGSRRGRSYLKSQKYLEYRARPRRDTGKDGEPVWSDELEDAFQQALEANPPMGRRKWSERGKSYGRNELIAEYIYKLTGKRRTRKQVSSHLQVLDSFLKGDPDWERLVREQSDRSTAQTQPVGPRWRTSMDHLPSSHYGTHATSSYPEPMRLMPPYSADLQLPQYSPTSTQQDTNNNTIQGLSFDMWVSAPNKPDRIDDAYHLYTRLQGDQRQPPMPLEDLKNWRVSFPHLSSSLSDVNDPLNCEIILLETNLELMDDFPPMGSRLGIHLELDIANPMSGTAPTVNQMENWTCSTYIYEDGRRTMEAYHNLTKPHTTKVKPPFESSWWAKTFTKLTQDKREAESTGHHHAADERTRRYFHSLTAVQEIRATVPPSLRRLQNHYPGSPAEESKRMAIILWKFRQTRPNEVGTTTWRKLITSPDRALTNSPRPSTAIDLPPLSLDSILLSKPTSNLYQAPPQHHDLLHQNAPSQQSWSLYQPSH

B1: velB EMSA probe 2 (dsDNA)
DNA 1: AGCTCCAGCTCCATTCCGCACGGTCATTCCGTTCTCGGCG
DNA 2: CGCCGAGAACGGAATGACCGTGCGGAATGGAGCTGGAGCT
B2: vosA EMSA probe 3 (dsDNA)
DNA 1: GTGGTTCCTTACCTCATTCCCGACCTTTTTTGCC
DNA 2: GGCAAAAAAGGTCGGGAATGAGGTAAGGAACCAC
B3: velB EMSA probe 1 (dsDNA)
DNA 1: CAGCTCCATTCCGCACGGTCATTCC
DNA 2: GGAATGACCGTGCGGAATGGAGCTG

Biological target: T1, GST-AbaA
Assay: EMSA; 6% glycerol, 12 mM HEPES-KOH pH 7.6, 4 mM Tris-HCl pH 8.0, 1 mM EDTA, 0.5 mM DTT, 0-12 ug poly(dI-dC), ~10 ng probe in 24 ul; RT, 20 min; 6% PAGE, TBE
Settings: protein: recombinant; tags: N-terminal GST (pGEX-5X-1); label: 32P (5' end, T4 PNK); blunt

Binder | binding result
B1 | binds
B2 | binds
B3 | binds

From article PMC3457981, “The Role, Interaction and Regulation of the Velvet Regulator VelB in Aspergillus nidulans”
